Experimental data from US20230192789A1, “STRUCTURALLY-STABILIZED AND HDMX-SELECTIVE P53 PEPTIDES AND USES THEREOF” (Dana-Farber Cancer Institute, Inc., priority 2020, published 2023).
Bridges are numbered along the chain shown (N, C = ends). Where no end group is shown, it is not given here. [ ]: non-standard residue; d: D form. The star is where a group is joined. Biotin = O=C1N[C@H]2[C@H](CS[C@H]2CCCCC(=O)*)N1; R8 = C=CCCCCCC[C@@](C)(N)C(=O)O; S5 = C=CCCC[C@](C)(N)C(=O)O

T1: recombinant HDMX (amino acids 1-490 of SEQ ID NO:104) (Homo sapiens, UniProt O15151)
T1 construct: thioredoxin (N, cleaved yes); S tag (N, cleaved yes); hexahistidine (N, cleaved yes); made in house; host or cells: E. coli (inferred: pET32-LIC vector, handled as described for HDM2 in BL21(DE3))
T1 sequence (O15151 1-490): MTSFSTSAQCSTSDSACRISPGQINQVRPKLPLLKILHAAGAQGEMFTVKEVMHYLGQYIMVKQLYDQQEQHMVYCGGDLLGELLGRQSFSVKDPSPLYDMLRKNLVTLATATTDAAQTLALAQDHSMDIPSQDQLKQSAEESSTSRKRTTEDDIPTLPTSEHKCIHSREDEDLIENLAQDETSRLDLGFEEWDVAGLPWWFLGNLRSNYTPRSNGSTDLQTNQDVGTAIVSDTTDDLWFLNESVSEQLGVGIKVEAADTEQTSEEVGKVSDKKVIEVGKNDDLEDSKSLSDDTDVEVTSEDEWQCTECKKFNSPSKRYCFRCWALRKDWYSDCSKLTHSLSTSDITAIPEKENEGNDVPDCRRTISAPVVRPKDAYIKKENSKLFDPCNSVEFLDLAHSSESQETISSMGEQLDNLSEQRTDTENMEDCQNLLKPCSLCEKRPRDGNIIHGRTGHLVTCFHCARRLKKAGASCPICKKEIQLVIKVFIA


How the values were obtained:
[1] = molecular target: T1, recombinant HDMX (amino acids 1-490 of SEQ ID NO:104); test: Competitive streptavidin pull-down of biotinylated peptides with 1:1 recombinant HDM2/HDMX mixture, HDMX western; type: binding; settings: biotinylated stapled peptide, 1:1 mixture of recombinant HDM2 and HDMX
[2] = molecular target: T2, recombinant HDM2 (amino acids 17-125 of SEQ ID NO:103) (human, UniProt Q00987 17-125); test: streptavidin pull-down of biotinylated peptide with recombinant HDM2 and HDMX (1:1 mixture per paragraph 301), western blot
T2 construct: also called MDM2; not shown: thrombin cleavage site (pET28a vector)
T2 sequence (Q00987 other isoform, or with tags, fused parts or gaps): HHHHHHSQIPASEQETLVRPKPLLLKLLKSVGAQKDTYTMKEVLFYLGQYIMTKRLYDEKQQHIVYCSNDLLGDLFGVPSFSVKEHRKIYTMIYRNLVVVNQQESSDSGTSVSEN

| HDMX versus HDM2 binding selectivity [1] | binding result [2] | Molecule |
| --- | --- | --- |
|  | no binding | Biotin-LTF[R8]EYWAQQ[S5]SAA-NH2 (staple 4-11; SMILES CC(C)C[C@H](NC(=O)CCCC[C@@H]1SC[C@@H]2NC(=O)N[C@@H]21)C(=O)N[C@H](C(=O)N[C@@H](Cc1ccccc1)C(=O)N[C@]1(C)CCCCCCC=CCCC[C@@](C)(C(=O)N[C@@H](CO)C(=O)N[C@@H](C)C(=O)N[C@@H](C)C(N)=O)NC(=O)[C@H](CCC(N)=O)NC(=O)[C@H](CCC(N)=O)NC(=O)[C@H](C)NC(=O)[C@H](Cc2c[nH]c3ccccc23)NC(=O)[C@H](Cc2ccc(O)cc2)NC(=O)[C@H](CCC(=O)O)NC1=O)[C@@H](C)O) [ATSP-7041 B26Q] |
|  | no binding | Biotin-LTF[R8]EYWAQS[S5]SAA-NH2 (staple 4-11; SMILES CC(C)C[C@H](NC(=O)CCCC[C@@H]1SC[C@@H]2NC(=O)N[C@@H]21)C(=O)N[C@H](C(=O)N[C@@H](Cc1ccccc1)C(=O)N[C@]1(C)CCCCCCC=CCCC[C@@](C)(C(=O)N[C@@H](CO)C(=O)N[C@@H](C)C(=O)N[C@@H](C)C(N)=O)NC(=O)[C@H](CO)NC(=O)[C@H](CCC(N)=O)NC(=O)[C@H](C)NC(=O)[C@H](Cc2c[nH]c3ccccc23)NC(=O)[C@H](Cc2ccc(O)cc2)NC(=O)[C@H](CCC(=O)O)NC1=O)[C@@H](C)O) [ATSP-7041 B26S] |
|  | no binding | Biotin-LTF[R8]EYWAQR[S5]SAA-NH2 (staple 4-11; SMILES CC(C)C[C@H](NC(=O)CCCC[C@@H]1SC[C@@H]2NC(=O)N[C@@H]21)C(=O)N[C@H](C(=O)N[C@@H](Cc1ccccc1)C(=O)N[C@]1(C)CCCCCCC=CCCC[C@@](C)(C(=O)N[C@@H](CO)C(=O)N[C@@H](C)C(=O)N[C@@H](C)C(N)=O)NC(=O)[C@H](CCCNC(=N)N)NC(=O)[C@H](CCC(N)=O)NC(=O)[C@H](C)NC(=O)[C@H](Cc2c[nH]c3ccccc23)NC(=O)[C@H](Cc2ccc(O)cc2)NC(=O)[C@H](CCC(=O)O)NC1=O)[C@@H](C)O) [ATSP-7041 B26R] |
|  | no binding | Biotin-LTF[R8]EYWAQV[S5]SAA-NH2 (staple 4-11; SMILES CC(C)C[C@H](NC(=O)CCCC[C@@H]1SC[C@@H]2NC(=O)N[C@@H]21)C(=O)N[C@H](C(=O)N[C@@H](Cc1ccccc1)C(=O)N[C@]1(C)CCCCCCC=CCCC[C@@](C)(C(=O)N[C@@H](CO)C(=O)N[C@@H](C)C(=O)N[C@@H](C)C(N)=O)NC(=O)[C@H](C(C)C)NC(=O)[C@H](CCC(N)=O)NC(=O)[C@H](C)NC(=O)[C@H](Cc2c[nH]c3ccccc23)NC(=O)[C@H](Cc2ccc(O)cc2)NC(=O)[C@H](CCC(=O)O)NC1=O)[C@@H](C)O) [ATSP-7041 B26V] |
|  | no binding | Biotin-LTF[R8]EYWAQN[S5]SAA-NH2 (staple 4-11; SMILES CC(C)C[C@H](NC(=O)CCCC[C@@H]1SC[C@@H]2NC(=O)N[C@@H]21)C(=O)N[C@H](C(=O)N[C@@H](Cc1ccccc1)C(=O)N[C@]1(C)CCCCCCC=CCCC[C@@](C)(C(=O)N[C@@H](CO)C(=O)N[C@@H](C)C(=O)N[C@@H](C)C(N)=O)NC(=O)[C@H](CC(N)=O)NC(=O)[C@H](CCC(N)=O)NC(=O)[C@H](C)NC(=O)[C@H](Cc2c[nH]c3ccccc23)NC(=O)[C@H](Cc2ccc(O)cc2)NC(=O)[C@H](CCC(=O)O)NC1=O)[C@@H](C)O) [ATSP-7041 B26N] |
|  | no binding | Biotin-LTF[R8]EYWAQT[S5]SAA-NH2 (staple 4-11; SMILES CC(C)C[C@H](NC(=O)CCCC[C@@H]1SC[C@@H]2NC(=O)N[C@@H]21)C(=O)N[C@H](C(=O)N[C@@H](Cc1ccccc1)C(=O)N[C@]1(C)CCCCCCC=CCCC[C@@](C)(C(=O)N[C@@H](CO)C(=O)N[C@@H](C)C(=O)N[C@@H](C)C(N)=O)NC(=O)[C@H]([C@@H](C)O)NC(=O)[C@H](CCC(N)=O)NC(=O)[C@H](C)NC(=O)[C@H](Cc2c[nH]c3ccccc23)NC(=O)[C@H](Cc2ccc(O)cc2)NC(=O)[C@H](CCC(=O)O)NC1=O)[C@@H](C)O) [ATSP-7041 B26T] |

Further lines, the molecule ahead of its results:

| Molecule | HDMX versus HDM2 binding selectivity [1] | binding result [2] |
| --- | --- | --- |
| SAH-p53-4 T18E: Formula (I) stapled peptide: [Xaa]w LSQEEF, [Xaa]x DLWKLL, [Xaa]y EN (LSQEEF[R8]DLWKLL[S5]EN-NH2; staple 7-14; not fully specified) | dual selectivity to HDMX and HDM2 |  |
| SAH-p53-4 T18R: Formula (I) stapled peptide: [Xaa]w LSQERF, [Xaa]x DLWKLL, [Xaa]y EN (LSQERF[R8]DLWKLL[S5]EN-NH2; staple 7-14; not fully specified) | selectivity to HDM2 |  |
| LTF[R8]EYWAQE[S5]SAA-NH2 (staple 4-11; not fully specified; printed as LTF8EYWAQEXSAA, also called ATSP B26E; LTF8EYWAQEXSAA) [ATSP-7041 B26E] |  | no binding |
| Biotin-LTF[R8]EYWAQD[S5]SAA-NH2 (staple 4-11; SMILES CC(C)C[C@H](NC(=O)CCCC[C@@H]1SC[C@@H]2NC(=O)N[C@@H]21)C(=O)N[C@H](C(=O)N[C@@H](Cc1ccccc1)C(=O)N[C@]1(C)CCCCCCC=CCCC[C@@](C)(C(=O)N[C@@H](CO)C(=O)N[C@@H](C)C(=O)N[C@@H](C)C(N)=O)NC(=O)[C@H](CC(=O)O)NC(=O)[C@H](CCC(N)=O)NC(=O)[C@H](C)NC(=O)[C@H](Cc2c[nH]c3ccccc23)NC(=O)[C@H](Cc2ccc(O)cc2)NC(=O)[C@H](CCC(=O)O)NC1=O)[C@@H](C)O) [ATSP-7041 B26D] |  | no binding |
| Biotin-LTF[R8]EYWAQC[S5]SAA-NH2 (staple 4-11; SMILES CC(C)C[C@H](NC(=O)CCCC[C@@H]1SC[C@@H]2NC(=O)N[C@@H]21)C(=O)N[C@H](C(=O)N[C@@H](Cc1ccccc1)C(=O)N[C@]1(C)CCCCCCC=CCCC[C@@](C)(C(=O)N[C@@H](CO)C(=O)N[C@@H](C)C(=O)N[C@@H](C)C(N)=O)NC(=O)[C@H](CS)NC(=O)[C@H](CCC(N)=O)NC(=O)[C@H](C)NC(=O)[C@H](Cc2c[nH]c3ccccc23)NC(=O)[C@H](Cc2ccc(O)cc2)NC(=O)[C@H](CCC(=O)O)NC1=O)[C@@H](C)O) [ATSP-7041 B26C] |  | no binding |
| Biotin-LTF[R8]EYWAQH[S5]SAA-NH2 (staple 4-11; SMILES CC(C)C[C@H](NC(=O)CCCC[C@@H]1SC[C@@H]2NC(=O)N[C@@H]21)C(=O)N[C@H](C(=O)N[C@@H](Cc1ccccc1)C(=O)N[C@]1(C)CCCCCCC=CCCC[C@@](C)(C(=O)N[C@@H](CO)C(=O)N[C@@H](C)C(=O)N[C@@H](C)C(N)=O)NC(=O)[C@H](Cc2c[nH]cn2)NC(=O)[C@H](CCC(N)=O)NC(=O)[C@H](C)NC(=O)[C@H](Cc2c[nH]c3ccccc23)NC(=O)[C@H](Cc2ccc(O)cc2)NC(=O)[C@H](CCC(=O)O)NC1=O)[C@@H](C)O) [ATSP-7041 B26H] |  | no binding |
| Biotin-LTF[R8]EYWAQG[S5]SAA-NH2 (staple 4-11; SMILES CC(C)C[C@H](NC(=O)CCCC[C@@H]1SC[C@@H]2NC(=O)N[C@@H]21)C(=O)N[C@H](C(=O)N[C@@H](Cc1ccccc1)C(=O)N[C@]1(C)CCCCCCC=CCCC[C@@](C)(C(=O)N[C@@H](CO)C(=O)N[C@@H](C)C(=O)N[C@@H](C)C(N)=O)NC(=O)CNC(=O)[C@H](CCC(N)=O)NC(=O)[C@H](C)NC(=O)[C@H](Cc2c[nH]c3ccccc23)NC(=O)[C@H](Cc2ccc(O)cc2)NC(=O)[C@H](CCC(=O)O)NC1=O)[C@@H](C)O) [ATSP-7041 B26G] |  | no binding |
| Biotin-LTF[R8]EYWAQK[S5]SAA-NH2 (staple 4-11; SMILES CC(C)C[C@H](NC(=O)CCCC[C@@H]1SC[C@@H]2NC(=O)N[C@@H]21)C(=O)N[C@H](C(=O)N[C@@H](Cc1ccccc1)C(=O)N[C@]1(C)CCCCCCC=CCCC[C@@](C)(C(=O)N[C@@H](CO)C(=O)N[C@@H](C)C(=O)N[C@@H](C)C(N)=O)NC(=O)[C@H](CCCCN)NC(=O)[C@H](CCC(N)=O)NC(=O)[C@H](C)NC(=O)[C@H](Cc2c[nH]c3ccccc23)NC(=O)[C@H](Cc2ccc(O)cc2)NC(=O)[C@H](CCC(=O)O)NC1=O)[C@@H](C)O) [ATSP-7041 B26K] |  | no binding |
| Biotin-LTF[R8]EYWAQP[S5]SAA-NH2 (staple 4-11; SMILES CC(C)C[C@H](NC(=O)CCCC[C@@H]1SC[C@@H]2NC(=O)N[C@@H]21)C(=O)N[C@H](C(=O)N[C@@H](Cc1ccccc1)C(=O)N[C@]1(C)CCCCCCC=CCCC[C@@](C)(C(=O)N[C@@H](CO)C(=O)N[C@@H](C)C(=O)N[C@@H](C)C(N)=O)NC(=O)[C@@H]2CCCN2C(=O)[C@H](CCC(N)=O)NC(=O)[C@H](C)NC(=O)[C@H](Cc2c[nH]c3ccccc23)NC(=O)[C@H](Cc2ccc(O)cc2)NC(=O)[C@H](CCC(=O)O)NC1=O)[C@@H](C)O) [ATSP-7041 B26P] |  | no binding |
